Results on eight molecules are retold here after US20050176649A1, “Iap binding peptides and assays for identifying compounds that bind iap” (priority 2001, published 2005).

Sequence of Recombinant XIAP-BIR3 (residues 238-358) (UniProt P98170) (P98170 238-358 limits assumed): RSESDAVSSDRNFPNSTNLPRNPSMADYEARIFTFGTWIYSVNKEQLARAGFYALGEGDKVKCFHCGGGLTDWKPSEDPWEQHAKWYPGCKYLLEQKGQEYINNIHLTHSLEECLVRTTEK

In one experiment the target is T1, Recombinant XIAP-BIR3 (residues 238-358) (UniProt P98170 238-358).
T1 construct: also called BIR3 domain of XIAP; BIR3 protein
T1 sequence (P98170 238-358 limits assumed): as above
Description: fluorescence competition, displacement of AVPC-badan from BIR3.
As a reminder, the Kd is the free concentration of one partner at which half of the binding sites on the other are occupied at equilibrium, for simple one-to-one binding. As for ACPI (Synthetic tetrapeptide), the Kd was 650 nM.

Consider AKPI (Synthetic tetrapeptide), for which the Kd was found to be 570 nM.

Turning to AMPI (Synthetic tetrapeptide), the Kd was 730 nM.

Consider AYPI (Synthetic tetrapeptide), for which the Kd amounted to 590 nM.

AFPI (Synthetic tetrapeptide): the Kd is 790 nM.

In the case of AIPI (Synthetic tetrapeptide), the Kd turned out to be 390 nM.

In the case of AQPI (Synthetic tetrapeptide), the Kd is 940 nM.

The next experiment addresses Recombinant XIAP-BIR3 (residues 238-358) (UniProt P98170). Described as above.
As for AbuVPI (peptide), the Fraction free was 0.887 and the Intensity (470 nm) turned out to be 34800.
